Test results from the supplement of paper PMC10065799, “High-throughput profiling of sequence recognition by tyrosine kinases and SH2 domains using bacterial peptide display” (eLife, 2023).

Legend:
AncSZ = assay: phosphorylation enrichment, bacterial display (enrichment ratio); higher = better substrate or ligand; peptides without Tyr show the background
EPHB1 = EPHB1 (UniProt P54762); assay: as above
EPHB2 = EPHB2 (UniProt P29323); assay: as above
FGFR1 = FGFR1 (UniProt P11362); assay: as above
Sequence of FGFR1 (P11362 whole entry, looked up): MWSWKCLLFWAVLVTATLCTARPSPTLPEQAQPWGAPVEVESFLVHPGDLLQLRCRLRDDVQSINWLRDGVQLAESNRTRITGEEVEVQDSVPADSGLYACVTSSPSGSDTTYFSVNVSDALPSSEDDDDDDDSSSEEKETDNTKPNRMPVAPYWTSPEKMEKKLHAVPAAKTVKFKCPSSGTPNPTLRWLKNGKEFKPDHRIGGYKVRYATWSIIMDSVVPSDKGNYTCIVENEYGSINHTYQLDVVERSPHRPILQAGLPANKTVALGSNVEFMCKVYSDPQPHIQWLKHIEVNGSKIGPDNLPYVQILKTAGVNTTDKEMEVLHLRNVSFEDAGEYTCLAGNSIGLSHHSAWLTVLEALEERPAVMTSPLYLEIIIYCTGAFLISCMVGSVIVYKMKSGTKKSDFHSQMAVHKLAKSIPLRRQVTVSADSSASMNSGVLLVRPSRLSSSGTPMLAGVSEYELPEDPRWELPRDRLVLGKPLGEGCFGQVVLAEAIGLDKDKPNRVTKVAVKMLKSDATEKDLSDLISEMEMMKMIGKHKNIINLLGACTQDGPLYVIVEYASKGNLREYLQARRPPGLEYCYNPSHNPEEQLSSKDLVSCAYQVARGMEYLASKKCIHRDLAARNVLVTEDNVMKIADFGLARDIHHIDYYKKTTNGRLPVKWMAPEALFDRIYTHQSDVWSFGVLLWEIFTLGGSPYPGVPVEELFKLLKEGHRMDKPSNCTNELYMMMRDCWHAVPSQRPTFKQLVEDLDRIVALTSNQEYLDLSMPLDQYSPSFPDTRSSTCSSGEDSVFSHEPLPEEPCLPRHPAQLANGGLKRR

FGFR3 = FGFR3 (UniProt P22607); assay: as above
Sequence of FGFR3 (P22607 whole entry, looked up): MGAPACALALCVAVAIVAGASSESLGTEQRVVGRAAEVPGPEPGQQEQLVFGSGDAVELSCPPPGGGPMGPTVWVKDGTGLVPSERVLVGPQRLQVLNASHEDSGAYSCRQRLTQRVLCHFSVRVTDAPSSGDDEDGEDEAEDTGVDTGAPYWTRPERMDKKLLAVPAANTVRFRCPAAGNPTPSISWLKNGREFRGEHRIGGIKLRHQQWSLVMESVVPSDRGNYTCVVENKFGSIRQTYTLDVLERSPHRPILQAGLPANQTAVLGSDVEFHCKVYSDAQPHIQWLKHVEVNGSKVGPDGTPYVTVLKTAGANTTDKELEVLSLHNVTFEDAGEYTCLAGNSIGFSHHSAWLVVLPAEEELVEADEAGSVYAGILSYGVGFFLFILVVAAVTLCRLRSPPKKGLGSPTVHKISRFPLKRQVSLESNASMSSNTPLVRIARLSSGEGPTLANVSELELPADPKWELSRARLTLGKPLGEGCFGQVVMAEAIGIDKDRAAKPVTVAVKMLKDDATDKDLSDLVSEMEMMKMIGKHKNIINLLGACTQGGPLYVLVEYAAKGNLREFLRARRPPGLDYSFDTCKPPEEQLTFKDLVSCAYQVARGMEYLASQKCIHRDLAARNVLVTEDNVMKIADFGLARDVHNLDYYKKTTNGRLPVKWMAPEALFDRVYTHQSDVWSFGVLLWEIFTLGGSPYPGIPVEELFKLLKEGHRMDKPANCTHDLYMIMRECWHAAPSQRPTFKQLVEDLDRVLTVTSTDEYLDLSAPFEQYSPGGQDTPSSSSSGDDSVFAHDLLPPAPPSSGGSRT

Fer (mouse) = assay: as above
Fes = Fes (UniProt P07332); assay: as above
Fyn = Fyn (UniProt P06241); assay: as above
Hck = Hck (UniProt P08631); assay: as above
Jak2 = Jak2 (UniProt O60674); assay: as above
Sequence of Jak2 (O60674 whole entry, looked up): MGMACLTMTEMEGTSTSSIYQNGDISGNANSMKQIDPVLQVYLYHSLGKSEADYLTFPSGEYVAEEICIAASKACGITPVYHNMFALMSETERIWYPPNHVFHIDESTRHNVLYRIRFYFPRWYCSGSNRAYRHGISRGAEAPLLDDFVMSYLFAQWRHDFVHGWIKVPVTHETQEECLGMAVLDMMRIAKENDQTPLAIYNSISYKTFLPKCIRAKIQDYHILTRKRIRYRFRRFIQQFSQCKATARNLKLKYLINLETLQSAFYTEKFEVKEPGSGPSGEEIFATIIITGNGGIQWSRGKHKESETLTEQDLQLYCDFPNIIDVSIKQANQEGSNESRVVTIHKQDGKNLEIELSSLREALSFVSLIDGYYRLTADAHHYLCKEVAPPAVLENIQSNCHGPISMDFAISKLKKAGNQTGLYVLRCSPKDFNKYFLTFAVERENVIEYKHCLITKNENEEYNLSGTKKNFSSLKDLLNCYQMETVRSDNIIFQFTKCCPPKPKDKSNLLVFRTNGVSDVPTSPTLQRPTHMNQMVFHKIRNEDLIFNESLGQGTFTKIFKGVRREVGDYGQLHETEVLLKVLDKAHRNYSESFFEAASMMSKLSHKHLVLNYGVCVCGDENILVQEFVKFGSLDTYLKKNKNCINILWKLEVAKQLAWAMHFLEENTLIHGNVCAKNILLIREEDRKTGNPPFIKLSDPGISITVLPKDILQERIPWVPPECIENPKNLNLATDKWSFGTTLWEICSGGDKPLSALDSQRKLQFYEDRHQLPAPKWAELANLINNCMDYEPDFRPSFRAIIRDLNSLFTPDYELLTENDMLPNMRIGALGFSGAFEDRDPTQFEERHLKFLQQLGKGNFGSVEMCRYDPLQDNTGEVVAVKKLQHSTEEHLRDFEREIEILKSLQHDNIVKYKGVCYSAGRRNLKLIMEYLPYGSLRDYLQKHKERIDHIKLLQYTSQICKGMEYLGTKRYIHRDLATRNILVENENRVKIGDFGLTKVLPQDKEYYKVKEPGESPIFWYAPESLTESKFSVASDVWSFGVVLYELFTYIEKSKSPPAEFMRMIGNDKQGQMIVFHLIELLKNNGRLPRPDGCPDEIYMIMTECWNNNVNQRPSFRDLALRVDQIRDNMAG

MERTK = MERTK (UniProt Q12866); assay: as above
c-Abl (mouse) = assay: as above
c-Src = assay: as above
Grb2 SH2 = Grb2 SH2 (UniProt P62993); assay: SH2 binding enrichment of the phosphorylated peptide, bacterial display (enrichment ratio); higher = better substrate or ligand; peptides without Tyr show the background
Sequence of Grb2 SH2 (P62993 whole entry, looked up): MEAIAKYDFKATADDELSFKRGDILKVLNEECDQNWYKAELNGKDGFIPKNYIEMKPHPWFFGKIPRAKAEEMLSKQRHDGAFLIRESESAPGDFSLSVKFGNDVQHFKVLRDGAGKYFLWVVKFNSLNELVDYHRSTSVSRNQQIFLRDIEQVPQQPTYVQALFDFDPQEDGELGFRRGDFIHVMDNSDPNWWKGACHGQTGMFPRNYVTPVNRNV

SHP2-C SH2 = assay: as above
c-Src SH2 = assay: as above
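Throughout, for SH2 binding enrichment of the phosphorylated peptide, bacterial display: peptide library displayed on the E. coli surface as eCPX fusions, selected cells deep-sequenced, score is each peptide's frequency after selection divided by its frequency in the input.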
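Throughout, for phosphorylation enrichment, bacterial display: 11-residue human phosphosite peptides and single-mutation variants displayed on the E. coli surface, counted by deep sequencing, each peptide's frequency after selection divided by its frequency in the unselected input library; frequency after pTyr selection over input frequency; kinase dosed for 20-30% of maximal phosphorylation in three min.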

Sequence of EPHB2 (P29323 whole entry, looked up): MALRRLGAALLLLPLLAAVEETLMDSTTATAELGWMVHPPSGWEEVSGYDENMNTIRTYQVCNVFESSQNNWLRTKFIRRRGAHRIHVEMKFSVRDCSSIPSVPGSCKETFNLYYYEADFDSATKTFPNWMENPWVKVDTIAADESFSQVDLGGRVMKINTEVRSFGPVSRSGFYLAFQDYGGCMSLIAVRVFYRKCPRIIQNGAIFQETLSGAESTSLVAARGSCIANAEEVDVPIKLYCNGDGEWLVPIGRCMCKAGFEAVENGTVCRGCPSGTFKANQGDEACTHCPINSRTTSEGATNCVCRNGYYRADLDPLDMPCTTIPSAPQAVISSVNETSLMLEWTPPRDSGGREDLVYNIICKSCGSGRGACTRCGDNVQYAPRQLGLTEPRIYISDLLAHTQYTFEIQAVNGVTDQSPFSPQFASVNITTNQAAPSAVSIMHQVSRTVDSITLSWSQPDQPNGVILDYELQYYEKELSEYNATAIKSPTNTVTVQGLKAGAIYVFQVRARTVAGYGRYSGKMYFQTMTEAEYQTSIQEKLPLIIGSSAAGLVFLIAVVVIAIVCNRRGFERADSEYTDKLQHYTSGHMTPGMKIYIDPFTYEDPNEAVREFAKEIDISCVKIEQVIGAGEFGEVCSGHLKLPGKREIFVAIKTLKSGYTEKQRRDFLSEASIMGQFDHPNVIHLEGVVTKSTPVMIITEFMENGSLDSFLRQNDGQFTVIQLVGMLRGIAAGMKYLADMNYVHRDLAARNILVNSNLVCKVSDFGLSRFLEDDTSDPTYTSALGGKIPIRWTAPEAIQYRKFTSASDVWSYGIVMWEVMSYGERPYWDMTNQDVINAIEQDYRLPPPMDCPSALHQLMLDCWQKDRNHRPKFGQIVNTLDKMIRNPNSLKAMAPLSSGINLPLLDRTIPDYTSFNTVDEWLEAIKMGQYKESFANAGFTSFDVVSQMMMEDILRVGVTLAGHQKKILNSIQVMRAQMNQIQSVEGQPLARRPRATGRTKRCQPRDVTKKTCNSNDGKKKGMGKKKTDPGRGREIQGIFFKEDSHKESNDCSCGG
Sequence of EPHB1 (P54762 whole entry, looked up): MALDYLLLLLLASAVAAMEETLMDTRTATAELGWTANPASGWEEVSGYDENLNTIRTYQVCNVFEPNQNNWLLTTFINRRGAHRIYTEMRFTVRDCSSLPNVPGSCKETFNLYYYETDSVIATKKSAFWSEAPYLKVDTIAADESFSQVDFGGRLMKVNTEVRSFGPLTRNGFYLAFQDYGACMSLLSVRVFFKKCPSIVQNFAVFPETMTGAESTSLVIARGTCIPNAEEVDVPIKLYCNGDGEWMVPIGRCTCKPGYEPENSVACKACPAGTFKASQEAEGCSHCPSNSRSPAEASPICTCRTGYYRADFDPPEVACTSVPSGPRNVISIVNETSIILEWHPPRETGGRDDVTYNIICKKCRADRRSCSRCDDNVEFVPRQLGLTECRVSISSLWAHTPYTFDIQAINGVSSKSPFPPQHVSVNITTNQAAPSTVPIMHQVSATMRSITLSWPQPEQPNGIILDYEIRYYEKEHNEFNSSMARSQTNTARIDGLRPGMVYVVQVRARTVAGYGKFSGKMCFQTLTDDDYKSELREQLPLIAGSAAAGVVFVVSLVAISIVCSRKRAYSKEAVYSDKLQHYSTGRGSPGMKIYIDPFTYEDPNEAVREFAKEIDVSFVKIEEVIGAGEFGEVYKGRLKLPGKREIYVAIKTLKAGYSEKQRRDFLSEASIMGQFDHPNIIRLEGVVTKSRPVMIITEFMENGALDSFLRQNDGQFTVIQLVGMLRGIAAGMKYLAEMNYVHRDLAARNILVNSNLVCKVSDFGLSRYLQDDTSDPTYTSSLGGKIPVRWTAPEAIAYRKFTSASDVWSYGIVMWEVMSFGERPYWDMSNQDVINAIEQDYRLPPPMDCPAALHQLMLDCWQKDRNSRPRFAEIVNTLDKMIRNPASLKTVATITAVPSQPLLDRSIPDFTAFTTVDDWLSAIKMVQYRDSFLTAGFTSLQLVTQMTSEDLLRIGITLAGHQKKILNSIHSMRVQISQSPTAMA

| Sequence | phosphorylation enrichment (AncSZ) | phosphorylation enrichment (EPHB1) | phosphorylation enrichment (EPHB2) | phosphorylation enrichment (FGFR1) | phosphorylation enrichment (FGFR3) | phosphorylation enrichment (Fer (mouse)) | phosphorylation enrichment (Fes) | phosphorylation enrichment (Fyn) | phosphorylation enrichment (Hck) | phosphorylation enrichment (Jak2) | phosphorylation enrichment (MERTK) | phosphorylation enrichment (c-Abl (mouse)) | phosphorylation enrichment (c-Src) | SH2 binding enrichment (Grb2 SH2) | SH2 binding enrichment (SHP2-C SH2) | SH2 binding enrichment (c-Src SH2) |
| --- | --- | --- | --- | --- | --- | --- | --- | --- | --- | --- | --- | --- | --- | --- | --- | --- |
| LQIPMYEVQWK [KIT_Y553_K550I] | 2.5 | 22.6 | 24.1 | 1.14 | 0.848 | 2.54 | 2.04 | 2.45 | 2.24 | 0.721 | 7.37 | 1.01 | 1.55 | 0.884 | 1.06 | 0.661 |
| LQLLGYRPVFS [CHST6_Y358_YF] | 1.17 | 0.598 | 0.793 | 0.535 | 0.707 | 0.57 | 1.42 | 0.451 | 0.697 | 1.15 | 0.502 | 0.865 | 0.487 | 0.806 | 0.626 | 0.68 |
| LQTFRYHGLSM [PDHA1_Y289_H292L_YF] | 1.26 | 1.05 | 0.822 | 0.835 | 1.38 | 1.27 | 1.21 | 1.07 | 0.578 | 0.732 | 0.747 | 0.589 | 0.356 | 0.886 | 0.448 | 0.486 |
| LSAPWYLNRIS [HEXA_Y421] | 0.791 | 0.562 | 0.511 | 0.429 | 0.533 | 0.359 | 0.797 | 0.371 | 0.46 | 0.699 | 0.331 | 0.447 | 0.362 | 1.19 | 1.19 | 0.697 |
| LSNPAYRLLLA [DDR1_Y513] | 1.27 | 0.945 | 1.1 | 1.17 | 1.19 | 0.981 | 1.15 | 0.954 | 1.14 | 1.99 | 0.568 | 0.917 | 1.21 | 1.06 | 1.01 | 0.582 |
| LSQQVYRVNLS [FAT4_Y480_F475L] | 0.821 | 0.532 | 0.622 | 0.428 | 0.631 | 0.572 | 0.751 | 0.616 | 0.521 | 0.647 | 0.792 | 0.637 | 0.836 | 0.764 | 0.67 | 0.422 |
| LTDLRYKVSGP | 0.644 | 0.518 | 0.957 | 0.43 | 1.13 | 0.588 | 1.11 | 0.537 | 0.594 | 0.687 | 0.464 | 0.684 | 0.255 | 1.04 | 0.82 | 0.407 |
| LTECGYSFTTT [ACTB_Y198_R196C] | 1.09 | 0.592 | 0.781 | 0.674 | 0.754 | 0.733 | 1.15 | 0.582 | 0.555 | 0.889 | 0.417 | 0.708 | 0.671 | 0.574 | 0.602 | 0.736 |
| LTSKPYAFTAW [NDUFS1_Y236_R241W] | 0.575 | 0.421 | 0.544 | 0.413 | 0.511 | 0.448 | 0.717 | 0.371 | 0.353 | 0.682 | 1.12 | 0.503 | 0.4 | 1.01 | 0.992 | 0.749 |
| LVIIKYLPEWT [PSEN1_Y240_F237I] | 3.39 | 2.33 | 2.39 | 1.38 | 2.62 | 0.911 | 2.86 | 1.75 | 1.21 | 2.79 | 1.03 | 1.5 | 0.818 | 1.66 | 1.28 | 1.15 |
| MACDRYVAICS [OR8D4_Y123] | 0.709 | 0.508 | 0.592 | 0.623 | 0.503 | 0.475 | 0.841 | 0.529 | 0.45 | 0.755 | 0.576 | 0.55 | 0.586 | 0.743 | 3.31 | 7.31 |
| MALDIYRASYY [ALK_Y1278_R1275L] | 0.874 | 0.594 | 0.564 | 0.655 | 0.713 | 0.434 | 0.911 | 0.974 | 1.57 | 0.86 | 0.674 | 2.99 | 1.76 | 1.15 | 0.9 | 1.19 |
| MANYVYKAGPS [MAML2_Y515_M514V] | 0.448 | 0.476 | 0.455 | 0.434 | 0.508 | 0.343 | 0.643 | 0.451 | 0.419 | 0.452 | 0.473 | 0.815 | 0.457 | 0.755 | 1.09 | 0.547 |
| MCDSHYLESRF [CLK1_Y56_S61F] | 0.78 | 0.447 | 0.568 | 0.509 | 0.603 | 0.44 | 0.867 | 0.472 | 0.522 | 0.793 | 0.504 | 0.608 | 0.443 | 0.905 | 0.854 | 0.66 |
| MDNQEYKDAYT [BRDT_Y331_K336T] | 1.33 | 0.598 | 0.796 | 0.667 | 0.783 | 0.638 | 1.33 | 0.589 | 0.673 | 1.11 | 0.586 | 0.792 | 0.546 | 0.702 | 0.655 | 0.574 |
| MEFAKYGSLRG [RET_Y809_V804M_YF] | 0.604 | 0.427 | 0.629 | 0.514 | 0.448 | 0.348 | 0.628 | 0.456 | 0.49 | 0.495 | 0.417 | 0.454 | 0.484 | 1 | 0.729 | 0.453 |
